Experimental data from patent publication US20230192886A1 (published 2023).

B1: R17P1A9 (TCR, V domains shown)
Valpha: QKEVEQNSGPLSVPEGAIASLNCTYSDRGSQSFFWYRQYSGKSPELIMSIYSNGDKEDGRFTAQLNKASQYVSLLIRDSQPSDSATYLCAVLNQAGTALIFGKGTTLSVSS
Vbeta: DSGVTQTPKHLITATGQRVTLRCSPRSGDLSVYWYQQSLDQGLQFLIQYYNGEERAKGNILERFSAQQFPDLHSELNLSSLELGDSALYFCASSAETGPWLGNEQFFGPGTRLTVL
B2: R17P1D7 (TCR, V domains shown)
Valpha: AQTVTQSQPEMSVQEAETVTLSCTYDTSESDYYLFWYKQPPSRQMILVIRQEAYKQQNATENRFSVNFQKAAKSFSLKISDSQLGDAAMYFCAYRWAQGGSEKLVFGKGTKLTVNP
Vbeta: EADIYQTPRYLVIGTGKKITLECSQTMGHDKMYWYQQDPGMELHLIHYSYGVNSTEKGDLSSESTVSRIRTEHFPLTLESARPSHTSQYLCATELWSSGGTGELFFGEGSRLTVL
B3: R16P1E8 (TCR, V domains shown)
Valpha: QKEVEQDPGPLSVPEGAIVSLNCTYSNSAFQYFMWYRQYSRKGPELLMYTYSSGNKEDGRFTAQVDKSSKYISLFIRDSQPSDSATYLCAMSEAAGNKLTFGGGTRVLVKP
Vbeta: EAGVAQSPRYKIIEKRQSVAFWCNPISGHATLYWYQQILGQGPKLLIQFQNNGVVDDSQLPKDRFSAERLKGVDSTLKIQPAKLEDSAVYLCASSYTNQGEAFFGQGTRLTVV

Target: T1, PRAME (PRAME-004) peptide on HLA-A*02:01 (human)
T1 peptide: SLLQHLIGL
Experiment: cytokine release

Binding result, recognises:
B1
B2
B3
